According to paper PMC4814140:

Molecular target: Arabidopsis thaliana aquaporin AtTIP2;1 (Arabidopsis thaliana) (UniProt Q41951)
Experiment: crystal structure; AtTIP2;1 solubilised by n-octyl-β-D-glucoside, hanging drop vapor diffusion at room temperature, 50 mM magnesium/sodium acetate pH 5.0, 28% (v/v) PEG 400; space group I 4, 1.18 Å, partial twinning

stoichiometry N: 4
Substance: Arabidopsis thaliana aquaporin AtTIP2;1 (from UniProt Q41951 2-250) (natural protein)
